Reference: patent US20210338833A1 (MIT, published 2021)

B1: anti-mCD19 (clone 1D3) IgG (antibody, V domains shown)
VH: EVQLQQSGAELVRPGTSVKLSCKVSGDTITFYYMHFVKQRPGQGLEWIGRIDPEDESTKYSEKFKNKATLTADTSSNTAYLKLSSLTSEDTATYFCIYGGYYFDYWGQGVMVTVSS
VL: DIQMTQSPASLSTSLGETVTIQCQASEDIYSGLAWYQQKPGKSPQLLIYGASDLQDGVPSRFSGSGSGTQYSLKITSMQTEDEGVYFCQQGLTYPRTFGGGTKLELK
notes: Anti-mouse CD19 IgG; biotinylated for sorting; also called 1D3 antibody; anti-mCD19 IgG
B3: 1D3 Mimotope Multimer H1 + C11 SKLKGKSGPEFHWFINVPPF (peptide)
peptide: SKLKGKSGPEFHWFINVPPF
notes: Chemically synthesized 20 amino acid fusion of two mimotopes; also called fusion mimotope
B4: 1D3 Mimotope Multimer H1 + E2 SKLKGKSGPEIRVLMSRVFA (peptide)
peptide: SKLKGKSGPEIRVLMSRVFA
notes: as for B3

Legend:
[1] = target: B3; assay: ELISA, OD(450nm) against the concentration of 1D3 IgG; label beside the square curve (H1 + C11)
Description: (§1) Specifically, a library was generated using nested PCR and the primers in Table 1. […] For each round of enrichment, the top 0.5-1% of yeast were sorted. Following enrichment, isolated clones were subjected to Sanger sequencing. […] To further characterize the mimotope affinity, absolute binding affinity was measured by ELISA. Specifically, three mimotopes were selected for screening (Table 8). Of the selected sequences, two fusion mimotopes were chemically synthesized. Specifically, two mimotopes were fused to form a 20 amino acid peptide (Table 9).

[2] = target: T1, 1D3 Mimotope (H1) SKLKGKSGPE; assay: ELISA, OD(450nm) against the concentration of 1D3 IgG; label under the circle curve (H1)
T1 peptide: SKLKGKSGPE

[3] = target: B4; assay: ELISA, OD(450nm) against the concentration of 1D3 IgG; label beside the triangle curve (H1 + E2)
Description: as §1

FMC63 IgG = target: T2, FMC63 IgG; assay: flow cytometry of yeast-displayed mutant
T2 construct: Murine monoclonal antibody to human CD19; also called FMC63 IgG antibody; biotinylated FMC63 IgG
Description: Specifically, a representative mimotope, […] […] To generate mutations, two complementary oligos with the codon replaced at the desired site were denatured at 95° C. and annealed by slow cooling to 25° C. (decreasing by 0.5° C./second). The annealed oligos were treated with T4 PNK (T4 Polynucleotide Kinase) to add a terminal phosphate, and then ligated into digested pCT-CON2 vector. Positive clones having the correct oligo inserted were tested and transformed into competent EBY100 yeast cells.

[4] = target: B1; assay: ELISA with anti-mCD19 IgG (1D3)
Description: as §1

[5] = target: T3, FMC63 Mimotope (E6) RLCPWSCVPI; assay: flow cytometry of yeast clones titrated with biotinylated FMC63 scFv monomer, MFI (geometric mean); axis without unit, nM by the legend paragraph 211
T3 peptide: RLCPWSCVPI

[6] = target: T4, FMC63 Mimotope (F12) RICPWNCKEL; assay: as above
T4 construct: also called F12 mimotope
T4 peptide: RICPWNCKEL

[7] = target: T5, FMC63 Mimotope (G9) RLCPWSCREL; assay: as above
T5 construct: Parent of the alanine scan
T5 peptide: RLCPWSCREL

[8] = target: T6, FMC63 Mimotope (A12) RRCPWSCKKQ; assay: as above
T6 peptide: RRCPWSCKKQ

[9] = target: T7, FMC63 Mimotope (F8) RLCPWDCREL; assay: as above
T7 peptide: RLCPWDCREL

[10] = target: T8, FMC63 Mimotope (G11) RLCPWNCREL; assay: as above
T8 peptide: RLCPWNCREL

[11] = target: T9, FMC63 Mimotope (H8) RICPWACVEL; assay: as above
T9 peptide: RICPWACVEL

[12] = target: T10, FMC63 Mimotope (H11) RICPWSCREL; assay: as above
T10 peptide: RICPWSCREL

[13] = target: T11, FMC63 Mimotope (C7) RLCPWACQEQ; assay: as above
T11 peptide: RLCPWACQEQ

[14] = target: T12, FMC63 Mimotope (H1) RVCPWSCMPI; assay: as above
T12 construct: Not the 1D3 mimotope that is also called H1
T12 peptide: RVCPWSCMPI

[15] = target: T13, FMC63 Mimotope (C5) RMCPWSCYEL; assay: as above
T13 peptide: RMCPWSCYEL

[16] = target: T14, FMC63 mimotope K-A11 RICPWNCKELYWLPDE; assay: flow cytometry of yeast clones titrated with biotinylated FMC63 scFv and streptavidin-PE, MFI (geometric mean); no unit on the concentration axis
T14 peptide: RICPWNCKELYWLPDE

[17] = target: T15, FMC63 mimotope K-A1 PRKHSGRICPWNCKELDNPPFIFGNR (not fully specified); assay: as above
T15 peptide: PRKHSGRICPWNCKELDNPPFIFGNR

[18] = target: T16, FMC63 mimotope K-A5 PLSRICPWNCKELYWLPQR; assay: as above
T16 peptide: PLSRICPWNCKELYWLPQR

[19] = target: T17, FMC63 mimotope K-A3 RICPWNCKELPTPYMMFDM; assay: as above
T17 peptide: RICPWNCKELPTPYMMFDM

[20] = target: T18, FMC63 mimotope K-A10 AKRRERDYVGRICPWNCKELHPDTRHRIPV; assay: as above
T18 peptide: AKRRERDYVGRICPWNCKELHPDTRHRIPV

[21] = target: T19, FMC63 mimotope K-B5 PPPRICPWNCKELPLDWPW; assay: as above
T19 peptide: PPPRICPWNCKELPLDWPW

[22] = target: T20, FMC63 mimotope K-D11 AGTRICPWNCKELYWLPDE; assay: as above
T20 peptide: AGTRICPWNCKELYWLPDE

[23] = target: T21, FMC63 mimotope K-F5 QFQRICPWNCKELYWLPDQ; assay: as above
T21 peptide: QFQRICPWNCKELYWLPDQ

[24] = target: T22, FMC63 mimotope K-C2 RICPWNCKELPSPPRIFGNR; assay: as above
T22 peptide: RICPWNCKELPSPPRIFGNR

[25] = target: B1; assay: yeast display selection with 1D3 IgG
Description: as §1

Which Kd [1] does the source give for B1 here?
The Kd was 102 nM.

What about the Kd [2] of the same binder?
Its Kd is 190 nM.

What about the Kd [3] of the same binder?
Its Kd is 6.7 nM.

B2: FMC63 Mimotope Mutant RLCPWSACREL (peptide)
peptide: RLCPWSACREL
notes: also called G9 with one alanine inserted between the cysteines
Does B2 bind (FMC63 IgG)?
Result: no binding (tested: 5 µM FMC63 IgG)

Does B3 bind [4]?
Result: binds

Does B4 bind [4]?
Result: binds

B5: FMC63 scFv (scFv)
scFv: DIQMTQTTSSLSASLGDRVTISCRASQDISKYLNWYQQKPDGTVKLLIYHTSRLHSGVPSRFSGSGSGTDYSLTISNLEQEDIATYFCQQGNTLPYTFGGGTKLEITGGGGSGGGGSGGGGSEVKLQESGPGLVAPSQSLSVTCTVSGVSLPDYGVSWIRQPPRKGLEWLGVIWGSETTYYNSALKSRLTIIKDNSKSQVFLKMNSLQTDDTAIYYCAKHYYYGGSYAMDYWGQGTSVTVSS
modifications: biotinylated
notes: Whole scFv entry (VL-(G4S)3-VH); also called FMC63-scFv monomer; biotinylated FMC63 scFv
Does B5 bind [5]?
Result: binds

Does B5 bind [6]?
Result: binds

Does B5 bind [7]?
Result: binds

Does B5 bind [8]?
Result: binds

Does B5 bind [9]?
Result: binds

Does B5 bind [10]?
Result: binds

Does B5 bind [11]?
Result: binds

Does B5 bind [12]?
Result: binds

Does B5 bind [13]?
Result: binds

Does B5 bind [14]?
Result: binds

Does B5 bind [15]?
Result: binds

Does B5 bind [16]?
Result: binds

Does B5 bind [17]?
Result: binds

Does B5 bind [18]?
Result: binds

Does B5 bind [19]?
Result: binds

Does B5 bind [20]?
Result: binds

Does B5 bind [21]?
Result: binds

Does B5 bind [22]?
Result: binds

Does B5 bind [23]?
Result: binds

Does B5 bind [24]?
Result: binds

B6: FMC63 Mimotope Mutant RLCPWSAACREL (peptide)
peptide: RLCPWSAACREL
notes: also called G9 with two alanines inserted between the cysteines
Does B6 bind (FMC63 IgG)?
Result: no binding (tested: 5 µM FMC63 IgG)

Does FHWFINVPPF [1D3 Mimotope (C11) FHWFINVPPF] bind [25]?
Result: binds

Does IRVLMSRVFA [1D3 Mimotope (E2) IRVLMSRVFA] bind [25]?
Result: binds
